From US20250127877A1 (University of Washington, published 2025)

Molecular target: TH-A/New Caledonia/20/1999_2GCN_dn5b (203L/210D/212V/216I) (influenza A virus A/New …)
Test: in vitro nanoparticle assembly, purified nanoparticles seen by cryo-EM

B1: I53_dn5A.1 (other)
chain: MGKYDGSKLRIGILHARGNAEIILALVLGALKRLQEFGVKRENIIIETVPGSFELPYGSKLFVEKQKRLGKPLDAIIPIGVLIRGSTPHFDYIADSTTHQLMKLNFELGIPVIFGVITADTDEQAEARAGLIEGKMHNHGEDWGAAAVEMATKFN
B1: binds.
